For eight molecules, Kd results are on record in patent US20250325672A1.

Experiment [1] has as its target Biotinylated 2019-nCoV (COVID-19) S1 protein (16-685), His, Avitag (SARS-CoV-2), P0DTC2. The experiment in a line: SPR, Biacore T200, geomean. A general note: In SPR one partner is held on a chip, and binding of the other changes the refractive index at the surface.
Experiment [2] addresses wild-type (WT) S1 domain of the SARS-COV-2 Spike Protein (ACROBiosystems, S1N-C82E8) (SARS-CoV-2), P0DTC2. Kind of experiment: FP direct binding.
In experiment [3] the target is COVID-19 S1 Spike Protein Mutant A262S (SARS-CoV-2), P0DTC2. Kind of experiment: FP direct binding.
For experiment [4], the target named is COVID-19 S1 Spike Protein Mutant P272L (SARS-CoV-2), P0DTC2. The experiment in a line: FP direct binding.
Experiment [5] concerns the target COVID-19 S1 Spike Protein Mutant K417N, E484K, N501Y (SARS-CoV-2), P0DTC2. Kind of experiment: FP direct binding.
The target in experiment [6] is COVID-19 S1 Spike Protein Mutant E484K (SARS-CoV-2), P0DTC2. The experiment in a line: FP direct binding.
The target of experiment [7] is COVID-19 S1 Spike Protein Mutant L452R (SARS-CoV-2), P0DTC2. The experiment in a line: FP direct binding.
For experiment [8], the target named is COVID-19 S1 Spike Protein Mutant G476S (SARS-CoV-2), P0DTC2. Kind of experiment: FP direct binding.
Experiment [9] has as its target COVID-19 S1 Spike Protein Mutant Y453F (SARS-CoV-2), P0DTC2. The experiment in a line: FP direct binding.
For experiment [10], the target named is COVID-19 S1 Spike Protein Mutant V483A (SARS-CoV-2), P0DTC2. Kind of experiment: FP direct binding.
Experiment [11] concerns the target COVID-19 S1 Spike Protein Mutant F490L (SARS-CoV-2), P0DTC2. Kind of experiment: FP direct binding.
The target in experiment [12] is COVID-19 S1 Spike Protein Mutant N439K (SARS-CoV-2), P0DTC2. Kind of experiment: FP direct binding.
The target of experiment [13] is COVID-19 S1 Spike Protein Mutant A475V (SARS-CoV-2), P0DTC2. The experiment in a line: FP direct binding.
The target in experiment [14] is COVID-19 S1 Spike Protein Mutant N501Y (SARS-CoV-2), P0DTC2. Kind of experiment: FP direct binding.
In experiment [15] the target is COVID-19 S1 Spike Protein Mutant N354D, D364Y (SARS-CoV-2), P0DTC2. Kind of experiment: FP direct binding.

Non-standard residues stand in square brackets, D forms with d. No end group written: not given here. Sar = CNCC(=O)O Bounds are passed on as bounds.

By Kd is commonly meant the constant that tells how readily two partners part at equilibrium. A higher Kd goes with lower affinity. The molecule CRNPDNPVCRFYC (modifications not checked) [BCY16905] displayed a Kd in experiment [1] of 10 nM.

Turning to CASPDNPVCRFYC (modifications not checked) [BCY16534], the Kd in experiment [2] came to 381 nM.

As for ACFDDWTCYIQMCA[Sar][Sar][Sar][Sar][Sar][Sar]K(Fl) (not fully specified; cysteine pairing not given here) [BCY15437], the Kd in experiment [3] is 15 nM; in [4] it was 17 nM.

Regarding ACEDHDWVYCSTCA[Sar][Sar][Sar][Sar][Sar][Sar][KFl] (cysteine pairing not given here) [BCY15299], the Kd in experiment [5] came out at 676 nM; in experiment [6], 475 nM; in [7], 548 nM; in [8], 944 nM; in experiment [9], 579 nM; in [10] it was 988 nM. Moreover, the Kd worked out at 441 nM in experiment [11], 531 nM in experiment [12], 710 nM in [13] and 935 nM in experiment [14].

Consider CPYVAGRGTCLLC (modifications not checked) [BCY16312], for which, in experiment [2], the Kd was found to be 759 nM.

For the molecule ACRQSQCDWWAIRSFCA[Sar][Sar][Sar][Sar][Sar][Sar][KFl] (cysteine pairing not given here) [BCY15324], the Kd was 1490 nM in [6]; 588 nM in [8]; 366 nM in experiment [9]; 751 nM in experiment [10]; 529 nM in [12]; 629 nM in experiment [13]. In addition, the Kd in experiment [14] was 1260 nM.

Molecule CYNHANPVCRYYC (modifications not checked) [BCY16540] showed a Kd in [2] above 883 nM.

In the case of ACDVCGLNAFNRCA[Sar][Sar][Sar][Sar][Sar][Sar][KFl] (cysteine pairing not given here) [BCY16287], the Kd in experiment [6] was found to be 55 nM; in [7] it was 53 nM; in [8] it was 58 nM; in experiment [15] it was 1120 nM; in experiment [10] it was 69 nM; in experiment [11] it was 49 nM. This molecule also had a Kd in [13] of 54 nM.
